1 molecule from patent US5503975, “Mechanism based inhibitors of DNA methyltransferase” (City of Hope) can be followed below.

The data set concerns the target DNA (cytosine-5) methyltransferase (Homo sapiens, UniProt P26358 P26358:1-1616). The data set is described as follows: tritiated AdoMet methyl transfer, 37 C, HEPES pH 7.0, 50 mM NaCl, 75 uM spermine; methyl at short arm end stimulates rate. The following applies: tags: none; purified from human placenta (partially purified/crude preparation for the covalent complexes); gapped foldback with L5 linker loop. On the procedure:
For the determination of initial velocities with oligodeoxynucleotide substrates, the enzyme was dialyzed for 3 hours in a Hoefer microdialyzer (Health Products Inc., Rockford, Ill.) against 38 mM glycine, 17% v/v glycerol, 5 mM Tris, 10 mM β-mercaptoethanol, pH 7.8 at 4° C. The final reaction volume of 100 μl contained: 0.4 μg total DNA, 50 mM HEPES pH 7.0, 50 mM NaCl, 2 mM DTT, 75 μM Spermine, 10% v/v glycerol and […] [^3H]AdoMet (Amersham, 15 Ci/mmole). Reaction mixtures were preincubated at 37° C. for 15 minutes before the addition of 44 U of DNA methyltransferase to initiate the reaction. The reaction rate was linear under these conditions for 30 minutes. After 20 minutes of incubation, the reactions were stopped by the addition of 5 ml of cold TCA (5% w/v TCA containing 5 mM potassium pyrophosphate). Tritium incorporated into TCA insoluble DNA was determined as previously described (Smith, S. S., supra).

Chain of DNA (cytosine-5) methyltransferase (P26358 whole entry, one chain of several): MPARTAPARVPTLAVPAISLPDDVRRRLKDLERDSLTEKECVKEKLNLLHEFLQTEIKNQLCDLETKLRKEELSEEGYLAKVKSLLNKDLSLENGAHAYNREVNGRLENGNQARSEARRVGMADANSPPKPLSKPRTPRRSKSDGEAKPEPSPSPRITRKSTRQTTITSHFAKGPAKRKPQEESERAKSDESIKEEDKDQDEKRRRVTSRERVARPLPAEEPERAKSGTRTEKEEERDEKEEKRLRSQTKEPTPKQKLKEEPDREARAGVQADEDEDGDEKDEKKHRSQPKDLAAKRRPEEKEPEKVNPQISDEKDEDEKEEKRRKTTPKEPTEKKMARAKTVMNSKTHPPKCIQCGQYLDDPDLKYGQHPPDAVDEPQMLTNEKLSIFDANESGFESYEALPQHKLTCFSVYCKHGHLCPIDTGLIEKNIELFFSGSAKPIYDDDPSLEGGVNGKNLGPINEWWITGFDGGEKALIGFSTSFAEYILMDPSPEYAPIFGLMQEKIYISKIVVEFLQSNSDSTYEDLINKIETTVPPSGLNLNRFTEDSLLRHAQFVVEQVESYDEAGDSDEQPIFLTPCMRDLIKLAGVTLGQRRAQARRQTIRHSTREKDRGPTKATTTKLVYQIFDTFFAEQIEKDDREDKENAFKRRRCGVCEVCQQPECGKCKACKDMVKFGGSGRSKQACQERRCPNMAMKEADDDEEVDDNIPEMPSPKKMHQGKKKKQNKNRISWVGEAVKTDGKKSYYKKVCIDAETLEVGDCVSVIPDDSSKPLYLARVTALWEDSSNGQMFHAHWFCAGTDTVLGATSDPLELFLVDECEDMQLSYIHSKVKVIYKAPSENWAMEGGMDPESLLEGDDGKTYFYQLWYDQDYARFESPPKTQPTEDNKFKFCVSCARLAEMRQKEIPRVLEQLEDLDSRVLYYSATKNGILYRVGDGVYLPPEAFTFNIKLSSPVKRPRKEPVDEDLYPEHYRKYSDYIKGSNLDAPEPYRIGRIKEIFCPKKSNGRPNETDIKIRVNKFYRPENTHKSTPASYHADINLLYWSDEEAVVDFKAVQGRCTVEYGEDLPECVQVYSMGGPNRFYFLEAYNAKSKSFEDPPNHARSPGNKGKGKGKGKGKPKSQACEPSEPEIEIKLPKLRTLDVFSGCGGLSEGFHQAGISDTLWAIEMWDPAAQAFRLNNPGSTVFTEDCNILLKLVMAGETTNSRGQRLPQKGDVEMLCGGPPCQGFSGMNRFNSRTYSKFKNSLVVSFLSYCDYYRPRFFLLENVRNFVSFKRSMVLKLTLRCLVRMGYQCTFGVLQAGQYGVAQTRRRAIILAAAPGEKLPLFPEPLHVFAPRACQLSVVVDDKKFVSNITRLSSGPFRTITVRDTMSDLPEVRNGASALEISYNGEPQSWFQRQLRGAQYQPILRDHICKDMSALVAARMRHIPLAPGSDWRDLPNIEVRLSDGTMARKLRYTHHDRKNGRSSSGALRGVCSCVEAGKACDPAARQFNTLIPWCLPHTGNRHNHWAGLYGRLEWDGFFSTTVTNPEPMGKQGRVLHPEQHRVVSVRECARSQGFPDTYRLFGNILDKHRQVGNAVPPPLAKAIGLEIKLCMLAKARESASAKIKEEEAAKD

B1: 48L-1 (structured_DNA)
DNA: TCGAGGCCAGGTAGCCCGGATCTGGTGGACGTCCACCAGATCC
modifications: five non-nucleotide linker units between 30mer and 13mer; 5mC at end of short arm
Molecule B1 returned an activity of over 100 fold stimulation.
